# Laboratory results as given in patent US20190263896A1 (UNIVERSITY OF ZURICH, published 2019).
# B1: control antibody 22C4 (antibody, V domains shown)
# VH: QVQLQQSGPELVKPGASVKISCKTSGYTFTEYTMHWVKQSHGKSLEWIGGVNPYNDNTSYIRKLQGKVTLTVDRSSSTAYMELRSLTSEDSAVYFCARYGGLRPYYFPMDFWGQGTSVTVSS
# VL: DIVLTQSPAILSASPGEKVTLTCRASSSVNYMHWYQQKPGSPPKAWIYATSNLASGVPDRFSASGSGTSYSLTISRVEAEDAATYYCQQWRTNPPTFGAGTKLELK
# B2: recombinant human antibody NI-101.13A (antibody, V domains shown)
# VH: QVQLQESGPGLVKPSETLSLTCTVSGGSISRRSYYWGWIRQSPGKGLEWSGSIHYSGSTYYNPSLKSRVTISVDTSKNQFSLKLSSVTAADTAVYYCARSRWGSSWVFDYWGQGTLVTVSS
# VL: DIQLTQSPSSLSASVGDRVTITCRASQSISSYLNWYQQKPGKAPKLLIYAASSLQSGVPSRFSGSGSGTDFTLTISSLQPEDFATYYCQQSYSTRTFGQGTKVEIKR
# B3: recombinant human antibody NI-101.13B (antibody, V domains shown)
# VH: B2 VH
# VL: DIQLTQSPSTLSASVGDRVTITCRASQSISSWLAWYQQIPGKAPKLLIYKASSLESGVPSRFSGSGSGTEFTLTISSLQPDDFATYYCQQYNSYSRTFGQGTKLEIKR
# B4: recombinant NI-101.12 (antibody, V domains shown)
# VH: EVQLVESGPGLVKPAETLSLTCTVSGGSIRSGSICWYWIRQPPGKGLEWIGYFCYSGATFYTPSLRGRLTISVDASKNQLSLSLSSVTAADTAVYYCARRAGENSGGIEPYYGMDVWGQGTTVTVSS
# VL: EIVLTQSPSSLSASIGDRVTITCRASESINKYVNWYQQKPGKAPKLLIYAASSLQSGAPSRVSGSGFGRDFSLTISGLQAEDFGAYFCQQSYSAPYTFGQGTKVEIKR
# B5: linear synthetic N-terminal Abeta-derived polypeptide representing positions 1 to 16 (peptide)
# peptide: DAEFRHDSGYEVHHQK
# notes: domain: Abeta1-16; the numbers count on the Abeta peptide; also called Abeta1-16; monomeric Abeta1-16
# Experiments:
# [1] = target: T1, monomeric synthetic Abeta (UniProt P05067 672-713); assay: ELISA, monomeric synthetic Abeta coated on the plate, antibody titrated
# T1 construct: also called monomeric Abeta; linear monomeric Abeta peptide
# [2] = target: T2, artificial amyloid fibrils prepared from synthetic Abeta1-42 peptides (UniProt P05067 672-713); assay: ELISA, fibrillar Abeta1-42 coated on the plate, antibody 0.1pM to 100nM [right panel]
# T2 construct: domain: Abeta1-42; Fibrillar assembly of many copies; also called Abeta1-42 fibrils; synthetic Abeta fibrils
# [3] = target: T3, synthetic Abeta1-42 peptide (UniProt P05067 672-713); assay: ELISA, synthetic Abeta1-42 peptide coated on the plate
# T3 construct: domain: Abeta1-42; also called linear synthetic Abeta1-42 monomers
# [4] = target: T4, recombinant human NI-101.11 antibody; assay: competition ELISA: NI-101.11 (1nM) pre-incubated with the peptide at 10 nM to 10 µM, then binding to the coated plate (the coat is not named) [right panel]
# T4 construct: also called human antibody against brain beta-amyloid
binder,measurement,setting,value
B1,EC50 (read off the curve),[1],~1 nM
B2,binding result,[2],binds
B3,binding result,[2],binds
B4,binding result,[3],binds
B5,binding result,[4],no binding (tested: 10 µM)
